{
  "source": "the DeepSol protein solubility set",
  "data": [
    {"test": "soluble on expression in E. coli; label from the status in PepcDB or PDB records", "values": [
      {"sequence": "MIPKIIHYVWVGHNPKSKLIQECIATWKEKLPDYQFIEWNEDNFDMHENKYIEQAYKAKKWAFVSDYIRAKAIYEQGGIYLDTDVRVIASLTPLLDNKAFIGFENNNYLSAAIFGAEKGHPFMQDILDYYKDRNFEYDVNNQMAGVNSVSVTDMLIDRYGLKIGNKEQELKEGIHVYPDGVLCNPSVNSLSIHLFTGTWMNGKHSFKHKLVTFLKRHINTPKEAGLYAKWIRLEHHHHHH", "soluble on expression in E. coli": "soluble"},
      {"sequence": "MGSDKIHHHHHHMNLNIAICDDDTNDIAIMKKNILQYTIETDNNIVVSSYFSASDILSDYKNHLYQIVLLDIEMPDINGMELARQLRDMDDDLLIIFTTSYPEYMHESFEVQPFQFITKPVDYTAIYKLFNNIIKKLYRNSKSIVIIDTDGEKNFVPLSDLLYISSMKENKLHLRYQLTDRALISKGTLSEAEKRLSSHGFVSPSRGFLVNLHQIRSITSTRLLLNNGFELPISRRRSKELQNIYSQHIINIL", "soluble on expression in E. coli": "not soluble"},
      {"sequence": "MGSDKIHHHHHHMPEHLDFTLFQPKGRLASIVQGVWSTSVAIHSSNNIKRWLHSDACSGFLFNLSEPIQLNDLSISTGGVLLPVSKQAQTITLPPGAVVVGVRFHPAMSFAILGNIYQQATQIKKSETNILSLQTLGNQLEQAKGHYARIVVFYRWLNTMLLTIDNIPAPLMSALKALEDKKSPGELSNHVLLSQRQIERHFQKWLNMTPKYYQRISRVKNALKVLKLHPETALADLALSIGFTDQAHMTREFKYIARITPKHYAQKVIDDKSNALSIIKPKVG", "soluble on expression in E. coli": "not soluble"},
      {"sequence": "MLKRTPLFPVYARYGAKTIEFGGWEMPVQFSSIKEEHEAVRTRAGLFDVSHMGEIVVRGRGSLAFLQKLMTNDVAKLRPGRAQYTLMCYEDGGTVDDLLIYQKGENDYLLVVNAANTEKDFAWLSGHVEGDVELQDVSSETAQLALQGPAAERVLQRLTDFDLAALRPFSFADGVEVSGVKALVSRTGYTGEDGFELYCKAEDAAALWEAILAAGARDGVLPCGLGARDTLRFEACLPLYGQELSDSISPVEAGLGFAVKTEKEPPFIGQAVLKRQKEEGPPRRLVGIEMIDRGIPRHGYLVFADGEEVGFVTTGTQSPTLKKNIGLALVKADVAAIGREVEVDIRGKRLKANIVPIPFYRRAK", "soluble on expression in E. coli": "not soluble"},
      {"sequence": "FRGFRYNAGVYFDRSRNKLTEFGAEEIGSYSIKREGLPYDEYYMLECIGVFADQAEINASPKQFNDNTQPGDLKYKDISGPDGKPDGVIDNYDRRTFSGRFPGFEYGINASATWKGFDLSLIGQGVADKKYYTTDWGVQPFMQGSSPNKDYIKHMWTEENPYGAKHPKLYWQDMGGGKNTRPNSYYLKDASFFRLKNLTLGYTLPRVWTEKANISKVRIYFSGDNLLTLTPYKGLDPERNGDGRDAIYPQNRIYSFGLNVEF", "soluble on expression in E. coli": "not soluble"},
      {"sequence": "MERETPKTPTPTPYTNIYAALNNKKTNDEVASKVTEELNKLKIAEEKDNKIVSREKPEMMSLNTLVEMCSAGEKPTKGKSEKDIRKKKAPVLVDDNQSYVMIGPPSEPVEPPATLSTETSKTNAIEESTVKRSEALSAYIGVATLNDAENHLTRRGEFALYHLFNPNGRLDTITEKLPLMIVYRTTTKKNRHYSIRTTCDQQFFVDCGYPNVRKHYSLNHLVKFYKVRILLPDTIQKQQLTDILQILKQFQTSATCEINPYDTSADSFSWWLE", "soluble on expression in E. coli": "soluble"},
      {"sequence": "MSLRNEVQFELFGDYALFTDPLTKIGGEKLSYSVPTYQALKGIAESIYWKPTIVFVIDELRVMKPIQMESKGVRPIEYGGGNTLAHYTYLKDVHYQVKAHFEFNLHRPDLAFDRNEGKHYSILQRSLKAGGRRDIFLGARECQGYVAPCEFGSGDGFYDGQGKYHLGTMVHGFNYPDETGQHQLDVRLWSAVMENGYIQFPRPEDCPIVRPVKEMEPKIFNPDNVQSAEQLLHDLGGEEGHHHHHH", "soluble on expression in E. coli": "soluble"},
      {"sequence": "MRNIQPRRLVTASGQPIVIRTAWPEDAERIVAFVKAVTAEALYLLTTEAEVTVTEDQQRQWLQKMADDPGKLALLAEHDGEMIGFLDFHNGNKRFRHEREKRLSRPGDRHGVACSAP", "soluble on expression in E. coli": "not soluble"},
      {"sequence": "MSLAIEKELLDQLLAGRDPSEVFGKDGLLDDLKKALSERILNAELDDHLDVERLEGGPANRRNGSSKKTVLTGTSKMTLTIPRDRAGTFDPKLIARYQRRFPDFDDKIISMYARGMTVREIQGHLEELYGIDVSPDLISAVTDTVLEAVGEWQNRPLELCYPLVFFDAIRVKIRDEGFVRNKAVYVALAVLADGSKEILGLWIEQTEGAKFWLRVMNELKNRGCQDILIAVVDGLKGFPEAITAVFPQTIVQTCIVHLIRHSLEFVSYKDRRTVVPALRAIYRARDAEAGLKALEAFEEGYWGQKYPAIAQSWRRNWEHVVPFFAFPEGVRRIIYTTNAIEALNSKLRRAVRSRGHFPGDEAAMKLLYLVLNNAAEQWKRAPREWVEAKTQFAVIFGERFFNEGHHHHHH", "soluble on expression in E. coli": "soluble"},
      {"sequence": "MASIAYGNNNYVIVKRDGKILTSSDGHEWKEKYFLQGGSFTSVTYNGNMFVAAGAYTVALPYGGPLTYGKCVIMTSPDGNNWQLQDAGYNADLKGITWSGKKFAVAGTNIILSSENGITWNAVEVNAILHDIAFGNGIFAAVGYDGVIMSSVDGEHWETKVEALRYDLTNIVWYDNKFIAIGSGSTPSIVVSGDGKTRVARGPKDASYKCDSSLHNVEWRKTGCSRLRQYYSDRRAKGYS", "soluble on expression in E. coli": "soluble"},
      {"sequence": "MFEKSFTLCDMEPTEINGGRFYARPLHNDERIDDSPALQLVDAHLTVDEARTAWNHDTIYTWAVCEQTNVEMIALAALHITETATVLDIAPVGDPNRKLPNDPVLTPKTVGDAVTEIRGPITRWCTAHGINISN", "soluble on expression in E. coli": "not soluble"},
      {"sequence": "MSVIYQTTITRIGQSAKEALGEQMLITFREGAPADIEEFCFIHCHGELTGALQPGARCELGQHCYPVTAVGSVAEQNLRELGHITLRFDGLREAEFPGTVHVAGPVPDDIAPGCILTFVA", "soluble on expression in E. coli": "not soluble"},
      {"sequence": "MSLNEESFEEFSMVLEDDLVGGTFSKVGEHNKRENEDFYITKDILDLNNVSESQGLCFYSGIFDGHGGSNCARYVMNHLKTNVIAKFRQSFLITCKKKFKEKGSKLNELSVELRALYDSCIKGFDMTDKNYIELSKKYNYKDGSTACIVLIYGPDDDGSLKVLCANCGDSGAFICHNKKPIKLSLRHKPDLQEERIRILKCGGIIANINGINRIITKHKDRNNLNENNNNKSKEKTFLALSTSRSFGDISYKIPRKIVQCKPFISVYTIDFDLDSFLVLATDGILNVLSDEEIIDIIWKNIHRKPEQAAEEVVNEATRRGSTDDKTCTVIFFYWRKEGHHHHHH", "soluble on expression in E. coli": "soluble"},
      {"sequence": "MPIPKSAKSDYTKEQKDLVGNICQCKDFYKILNVDKKASPDEIRIAFRKRIREVHPDKCKHPSATEASKVVNNAFSLLMDPAKRRQYDLQNAETSNENLYKRCNRNKNQRKQEYSNTQRQNHKKSEPSNGKRNEQNSSFKQDHNSKNHQSNHQKTKNKKSNPYSNQNNFNNTRKDYREEKSGFSWNTGSA", "soluble on expression in E. coli": "not soluble"},
      {"sequence": "MSLESRFCDICGKPAKTYQFGSLLCEDPECLKKAQKLRGGPAGHKLRVISVGSTNPVKVSAVEKAIEKTVGTMLVSSVDTKSGVSDQPQGFEETFKGAYNRAKGAFEKVNCVYGIGIEAGIVEIGEKKLDIHICVVYNGLDYSVGTSQAFQIPKDISDMINEGYECSKIAEETYRVKNIGQKNGIIGVLTDNNILREQLCIDSVVMAMIPKYRRNSQIREGHHHHHH", "soluble on expression in E. coli": "soluble"},
      {"sequence": "MAHHHHHHMDYEEPGQATRELTTFVQGLLQNMQTRFQEMSDTIITRIDEMGTRIDDLEKNIAELMQQAGPDEEAAQTASAPKDKKKSKGK", "soluble on expression in E. coli": "soluble"},
      {"sequence": "MKIGILTQPLSNNYGGILQALALQTVLRSMGHETVILSREYDYPPFRLCLMRILSVLKCIVRKYILRDNRAIIANPFLHFYATDKTQVYDDNEIQAFIRKNLKCSVRLQSTWILKIYVRLHHFDAFLVGSDQVWRESFSPCITNFFLDFLSQKCRAKRIAYGASFGVEQNPISVASLNQCVELAKRFDAISVREQSGVKIMKETFHLSACQVLDPTLLLPVDFYRSFMQKSDMDSSGLVSYLLDGNEEKRNIIAVAREQLQLSQTELLLFPSRYKDEVPRFSSVSSWLSAFANADFVVTDSFHGCVFSIIFRKPFVVISNSGRGNERFFSLLDTFGLNDRLVFSYEEFVDKEEILLIEQDYTEVERKYENLKVKSLEFLFQALNEN", "soluble on expression in E. coli": "not soluble"},
      {"sequence": "MDTPFIVFWELTRACMLACKHCRAKAIRKRHPDELTTEECFNVIDQLSEFNPKPLLIITGGDPLMRDDVTEIISHAAEKGFRVAIAFSGTEKATEEKLRELKEAGVARVAVSIDGSDEEKHDSFRGVRGTFRMSMMAIENAKKAGLPFQINTTVTRENIEDLPNIARLCLELGAVMWDVFFVVPTGRAKAEMMPTPQQFE", "soluble on expression in E. coli": "not soluble"},
      {"sequence": "MMKIVPPKPFFFEAGERAVLLLHGFTGNSADVRMLGRFLESKGYTCHAPIYKGHGVPPEELVHTGPDDWWQDVMNGYEFLKNKGYEKIAVAGLSLGGVFSLKLGYTVPIEGIVTMCAPMYIKSEETMYEGVLEYAREYKKREGKSEEQIEQEMEKFKQTPMKTLKALQELIADVRDHLDLIYAPTFVVQARHDEMINPDSANIIYNEIESPVKQIKWYEQSGHVITLDQEKDQLHEDIYAFLESLDW", "soluble on expression in E. coli": "soluble"},
      {"sequence": "MKATPAQVPMKERIKEVATDMLIAHGSSGFRFQQIAQALDCTRGNIHYHYRHKHELVEDVTIEYCQRTIGHFDQIWLSDSTLSQKIQLSMQFNEMRYLKRNPQGDTSHPWSLIARMRLESALITPAAREALARYSHELQRSVVAGVRRAVEKGELRPDTPVEMVALPIIEMANSADPITRDAGRFDRLRQMYQAVDRLIHDAYGMAGHRPAP", "soluble on expression in E. coli": "not soluble"},
      {"sequence": "MQYFSPEQQYNAWIVSDLVKQIFHKRAGCSPGIHELAVFAEEHFHIDIDFVFSIIMNIGDIEFALTDEIEKKLSGYLSTLLPYVTADMFETSKANAHAFLSRRHGNAAYHLFVSDDAFMRKQLEHHHHHH", "soluble on expression in E. coli": "soluble"},
      {"sequence": "MASIKKVYRGMKNGAETINDDLEAINSELTSGGNVVHKTGDETIAGKKTFTGNVEVNGSLTLPVQTLTVEAGNGLQLQLTKKNNDLVIVRFFGSVSNIQKGWNMSGTWVDRPFRPAAVQSLVGHFAGRDTSFHIDINPNGSITWWGANIDKTPIATRGNGSYFIK", "soluble on expression in E. coli": "soluble"},
      {"sequence": "MGSDKIHHHHHHMSYKVINVITAIDYIEEHLSEKLDLDIVANAVHYSKYHLHRTFTTSVGLTMHDYIKRRKLTEAAKLLVFSKKPIIEIALIAGYESQQAFTSIFKAMYKKSPNKYRKEQEFYPLQLRFVLKKDNLFLKNVLELEKEIKLASMSDIPLWMNLVRLVIDGFPNLQEEEYIYQLEQYILEERALILKLNNVAIANMVFNRETRSIDFFGIHPQYRNSDIAQVFLKKVIEDFLIDTDISITTFREGDKADTGHRDMIKKLGFAEAELLVEFGYPTQKFILPLS", "soluble on expression in E. coli": "not soluble"},
      {"sequence": "MGSDKIHHHHHHMFSPTKLKEKRESQGLSQSQLASSLGISRVSYFNWESGKTKPNQNNLSKLSQILTVDPCYFESEYEIVETYLKLTEKNQKATLHYATELLNKQNEKVVDIPERFAYKVYEKLSAGTGTAYFDDGNYDTVYFNHQFDYDFASWVFGNSMEPTYENGSVALIKQTGFDYDGAIYAIDWDGQTYIKKVYREENGLRLVSLNRNYSDKFAPYDENPRIIGKIVGNFMPLED", "soluble on expression in E. coli": "not soluble"}
    ]}
  ]
}
